Experimental data from patent publication US20180134781A1 (Regeneron, published 2018).
One block for each binder: values may come before it.

Legend:
[1] = target: T1, human ANGPTL8 expressed with C-terminal mouse IgG2a Fc tag (human); assay: BLI (Octet HTX), hANGPTL8-mFc captured on AMC sensor
T1 construct: also called hANGPTL8-mFc; hANGPTL8.mFc
T1 chain: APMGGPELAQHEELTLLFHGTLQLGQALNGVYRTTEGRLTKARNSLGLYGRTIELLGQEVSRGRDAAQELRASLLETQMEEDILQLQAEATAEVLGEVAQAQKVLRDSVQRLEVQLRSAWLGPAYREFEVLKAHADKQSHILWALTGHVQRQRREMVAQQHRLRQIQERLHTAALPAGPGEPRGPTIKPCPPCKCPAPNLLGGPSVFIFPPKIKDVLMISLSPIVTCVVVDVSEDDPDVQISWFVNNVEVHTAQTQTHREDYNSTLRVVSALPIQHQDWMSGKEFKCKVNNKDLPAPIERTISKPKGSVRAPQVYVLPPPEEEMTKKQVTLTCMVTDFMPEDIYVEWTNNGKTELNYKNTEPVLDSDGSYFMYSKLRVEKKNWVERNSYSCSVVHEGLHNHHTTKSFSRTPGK
Description: (§1) Binding of ANGPTL8 antibodies to human and monkey ANGPTL8 proteins was investigated using Bio-layer Interferometry with an Octet HTX biosensor platform (ForteBio, A Division of Pall Life Sciences). All experiments were performed at 25° C. in 10 mM HEPES pH 7.4, 150 mM NaCl, 0.05% v/v Surfactant Tween-20, and 1 mg/ml BSA with the reaction multiwell plate agitated at 1000 rpm. Approximately 1.6 nm of human ANGPTL8 produced with a C-terminal mouse IgG2a Fc tag (hANGPTL8-mFc; SEQ ID NO: 340) or cynomolgus monkey ANGPTL8 produced with a C-terminal mouse IgG2a Fc tag (MfANGPTL8-mFc; SEQ ID NO: 341) was captured onto anti-mFc (AMC) Octet biosensors by submerging the sensors into wells containing 10 μg/mL of each protein for 4 minutes. Under the same conditions a negative control protein with the same mFc tag (hLDLR-mFc) was also coupled to the AMC sensor. All four sensors, […] and one blank, were then submerged into wells containing 100 nM of different ANGPTL8 monoclonal antibodies or an isotype control for 4 minutes.

[2] = target: T2, monkey ANGPTL8 expressed with C-terminal mouse IgG2a Fc tag (cynomolgus monkey); assay: BLI (Octet HTX), MfANGPTL8-mFc captured on AMC sensor
T2 construct: also called MfANGPTL8-mFc; mfANGPTL8-mFc
T2 chain: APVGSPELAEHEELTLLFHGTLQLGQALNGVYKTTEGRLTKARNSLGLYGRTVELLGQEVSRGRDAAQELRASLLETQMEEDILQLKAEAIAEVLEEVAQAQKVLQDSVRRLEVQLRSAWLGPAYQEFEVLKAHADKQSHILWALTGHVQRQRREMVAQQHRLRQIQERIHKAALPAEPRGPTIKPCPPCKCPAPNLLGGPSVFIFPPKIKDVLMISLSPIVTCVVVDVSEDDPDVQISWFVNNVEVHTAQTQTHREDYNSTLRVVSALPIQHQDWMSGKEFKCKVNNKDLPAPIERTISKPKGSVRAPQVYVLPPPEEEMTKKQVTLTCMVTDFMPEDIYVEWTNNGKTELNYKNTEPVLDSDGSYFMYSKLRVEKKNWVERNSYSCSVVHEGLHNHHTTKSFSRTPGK
Description: as §1

[3] = target: T3, hLDLR-mFc (negative control protein with the same mFc tag) (human, UniProt P01130 22-788); assay: BLI (Octet HTX), hLDLR-mFc captured on AMC sensor
T3 construct: also called Irrelevant control; not shown: mFc tag ('the same mFc tag', mouse IgG2a Fc)
Description: as §1

[4] = target: T4, mouse ANGPTL4 (mouse, UniProt Q9Z1P8 24-410, limits assumed); assay: SPR
T4 sequence (looked up): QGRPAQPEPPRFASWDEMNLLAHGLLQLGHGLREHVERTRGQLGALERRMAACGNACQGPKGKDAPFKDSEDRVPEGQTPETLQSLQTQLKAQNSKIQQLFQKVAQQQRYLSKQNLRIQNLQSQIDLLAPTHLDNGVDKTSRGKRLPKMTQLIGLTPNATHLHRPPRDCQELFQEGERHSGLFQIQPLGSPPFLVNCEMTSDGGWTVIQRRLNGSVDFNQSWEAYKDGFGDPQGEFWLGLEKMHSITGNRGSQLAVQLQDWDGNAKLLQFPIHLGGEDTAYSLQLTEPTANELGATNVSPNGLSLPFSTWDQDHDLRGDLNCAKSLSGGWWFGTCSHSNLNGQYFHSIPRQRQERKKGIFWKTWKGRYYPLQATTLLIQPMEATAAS

[5] = target: T5, human ANGPTL4 (human, UniProt Q9BY76 26-406, limits assumed); assay: SPR
T5 construct: also called hANGPTL4
T5 sequence: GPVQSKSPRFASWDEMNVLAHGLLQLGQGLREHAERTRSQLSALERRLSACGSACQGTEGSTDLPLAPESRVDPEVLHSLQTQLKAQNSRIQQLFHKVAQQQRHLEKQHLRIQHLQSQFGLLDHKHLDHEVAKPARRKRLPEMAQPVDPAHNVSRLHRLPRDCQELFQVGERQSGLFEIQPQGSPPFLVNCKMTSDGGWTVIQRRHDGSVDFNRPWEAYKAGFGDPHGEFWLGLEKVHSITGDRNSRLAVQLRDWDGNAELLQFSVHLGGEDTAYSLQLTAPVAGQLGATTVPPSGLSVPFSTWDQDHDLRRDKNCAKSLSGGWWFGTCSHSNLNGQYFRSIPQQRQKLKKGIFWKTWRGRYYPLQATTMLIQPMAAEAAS

[6] = target: T6, mouse ANGPTL8 (mouse, UniProt Q8R1L8 16-198, limits assumed); assay: SPR
T6 sequence (looked up): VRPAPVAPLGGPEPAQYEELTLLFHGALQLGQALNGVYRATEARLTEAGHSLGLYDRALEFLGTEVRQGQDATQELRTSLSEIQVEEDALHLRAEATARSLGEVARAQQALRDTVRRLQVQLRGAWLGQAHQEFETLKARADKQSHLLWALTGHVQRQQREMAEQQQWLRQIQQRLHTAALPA

[7] = target: T7, mouse ANGPTL3 (mouse, UniProt Q9R182 17-455, limits assumed); assay: SPR
T7 sequence (looked up): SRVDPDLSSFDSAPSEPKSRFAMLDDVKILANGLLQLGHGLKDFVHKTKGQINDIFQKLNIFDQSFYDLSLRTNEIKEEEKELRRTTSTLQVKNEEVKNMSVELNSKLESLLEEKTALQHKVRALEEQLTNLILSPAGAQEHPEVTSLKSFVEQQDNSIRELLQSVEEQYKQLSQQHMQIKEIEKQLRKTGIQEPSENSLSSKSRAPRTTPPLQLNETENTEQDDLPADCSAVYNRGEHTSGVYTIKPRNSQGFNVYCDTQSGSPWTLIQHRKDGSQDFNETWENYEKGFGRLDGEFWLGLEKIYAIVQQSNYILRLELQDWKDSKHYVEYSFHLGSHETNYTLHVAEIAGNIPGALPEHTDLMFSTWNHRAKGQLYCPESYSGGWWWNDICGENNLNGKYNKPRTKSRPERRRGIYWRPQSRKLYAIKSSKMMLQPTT

[8] = target: T8, human ANGPTL3 (human, UniProt Q9Y5C1 17-460, limits assumed); assay: SPR
T8 construct: also called hANGPTL3
T8 sequence: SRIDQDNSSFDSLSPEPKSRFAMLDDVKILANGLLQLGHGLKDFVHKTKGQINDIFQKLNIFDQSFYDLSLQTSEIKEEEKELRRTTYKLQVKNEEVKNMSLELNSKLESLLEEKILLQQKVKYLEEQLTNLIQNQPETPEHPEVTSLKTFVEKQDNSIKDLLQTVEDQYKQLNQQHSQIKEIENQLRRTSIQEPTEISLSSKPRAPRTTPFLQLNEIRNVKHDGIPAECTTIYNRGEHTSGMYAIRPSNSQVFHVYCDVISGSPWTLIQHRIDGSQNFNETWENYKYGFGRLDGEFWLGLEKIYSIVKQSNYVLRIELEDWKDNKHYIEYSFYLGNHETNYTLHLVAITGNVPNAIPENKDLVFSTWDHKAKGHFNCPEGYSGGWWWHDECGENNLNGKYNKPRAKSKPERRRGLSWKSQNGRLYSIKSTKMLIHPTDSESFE

T3 sequence (P01130 22-788): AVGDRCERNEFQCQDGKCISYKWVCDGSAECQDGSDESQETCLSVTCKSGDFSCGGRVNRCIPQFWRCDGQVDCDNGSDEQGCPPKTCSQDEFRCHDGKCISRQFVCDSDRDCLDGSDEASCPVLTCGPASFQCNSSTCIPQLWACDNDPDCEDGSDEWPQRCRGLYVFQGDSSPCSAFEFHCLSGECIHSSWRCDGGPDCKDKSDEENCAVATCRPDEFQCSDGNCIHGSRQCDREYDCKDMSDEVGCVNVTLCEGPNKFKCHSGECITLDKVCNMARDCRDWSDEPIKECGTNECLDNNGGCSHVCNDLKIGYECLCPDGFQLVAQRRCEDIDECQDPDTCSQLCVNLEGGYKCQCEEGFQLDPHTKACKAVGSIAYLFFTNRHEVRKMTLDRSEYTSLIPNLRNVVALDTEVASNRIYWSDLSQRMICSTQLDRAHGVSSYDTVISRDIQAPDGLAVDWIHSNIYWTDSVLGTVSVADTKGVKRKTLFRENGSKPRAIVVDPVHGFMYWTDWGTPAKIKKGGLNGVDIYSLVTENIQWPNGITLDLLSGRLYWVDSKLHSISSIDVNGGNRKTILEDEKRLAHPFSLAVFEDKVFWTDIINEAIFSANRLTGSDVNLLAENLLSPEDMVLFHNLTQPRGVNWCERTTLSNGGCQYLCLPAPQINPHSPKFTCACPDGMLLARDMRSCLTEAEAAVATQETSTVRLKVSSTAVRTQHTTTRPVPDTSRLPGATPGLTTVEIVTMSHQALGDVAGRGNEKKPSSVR

B1: H4H15316P (antibody, human IgG4, V domains shown)
VH: EVQLVESGGGLVQPGRSLRLSCAASGFIFDDYDMHWVRQAPGKGLEWVSGISWNSGSKGYADSVKGRFTISRDNAKNSLYLQMNSLRAEDTALYYCTKGPWDYFDYWGQGTLVTVSS
VL: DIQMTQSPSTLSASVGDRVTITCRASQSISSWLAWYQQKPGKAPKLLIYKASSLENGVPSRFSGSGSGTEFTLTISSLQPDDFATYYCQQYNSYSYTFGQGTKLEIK
notes: human IgG4 Fc (H4H prefix)
binding result [1]: no binding (tested: background 0.03 nm at 100 nM mAb) | binding result [2]: no binding (tested: background 0.03 nm at 100 nM mAb) | binding result [3]: no binding (tested: 0.03 nm at 100 nM mAb)

binding result [4]: no binding | binding result [5]: no binding | binding result [6]: no binding | binding result [7]: no binding | binding result [8]: no binding
B2: H4H15341P (antibody, human IgG4, V domains shown)
VH: EVQLVESGGGLVQPGGSLRLSCAASGFTFNNHEMNWVRQAPGKGLEWVSYISSSGNTVTYADFLKGRFTISRDNAKNSLFLQMNSLRDEDTAVYYCARDHLSGTSPLSYWGQGTLVTVSS
VL: DIQMTQSPSSLSASVGDRVTITCQASQDINNYLNWFQQKPGKAPKLLIFDASNLETGVPSRFSGSGSGTDFTFTISSLQPEDIATYFCQQYENLPYTFGQGTKLEIK
notes: also called anti-hANGPTL8
binding result [3]: no binding (tested: 0.03 nm at 100 nM mAb)
